{
  "source": "paper PMC9240080",
  "key": {"SpySwitch [1]": {"biological_target": "SpySwitch", "experiment": "ITC"}, "SpySwitch [2]": {"biological_target": "SpySwitch", "experiment": "ITC; pH 7.5"}},
  "data": [
    {"substance": "SpyTag-MBP", "values": [
      {"measurement": "stoichiometry N", "setting": "SpySwitch [1]", "value": 1},
      {"measurement": "Kd", "setting": "SpySwitch [2]", "value": 1100, "unit": "nM"}
    ]},
    {"substance": "SpyTag003-MBP", "values": [
      {"measurement": "stoichiometry N", "setting": "SpySwitch [1]", "value": 1},
      {"measurement": "Kd", "setting": "SpySwitch [2]", "value": 1500, "unit": "nM"}
    ]}
  ]
}
